Measurements reported in paper PMC9960064.
One block for each substance: values may come before it.

Key:
Experiment in all cases: ITC
[1] = molecular target: untagged β′-COP residues 1–604 (yeast (S. cerevisiae)) (UniProt P41811)
[2] = molecular target: C-terminal β′-COP propeller (residues 300–604), untagged (yeast (S. cerevisiae)) (UniProt P41811)
[3] = molecular target: β′-COP R13A/K15A/R59A (RKR mutant), residues 1–604, untagged (yeast (S. cerevisiae)) (UniProt P41811)

untagged β′-COP residues 1–604 (yeast (S. cerevisiae)), sequence (P41811 1-604): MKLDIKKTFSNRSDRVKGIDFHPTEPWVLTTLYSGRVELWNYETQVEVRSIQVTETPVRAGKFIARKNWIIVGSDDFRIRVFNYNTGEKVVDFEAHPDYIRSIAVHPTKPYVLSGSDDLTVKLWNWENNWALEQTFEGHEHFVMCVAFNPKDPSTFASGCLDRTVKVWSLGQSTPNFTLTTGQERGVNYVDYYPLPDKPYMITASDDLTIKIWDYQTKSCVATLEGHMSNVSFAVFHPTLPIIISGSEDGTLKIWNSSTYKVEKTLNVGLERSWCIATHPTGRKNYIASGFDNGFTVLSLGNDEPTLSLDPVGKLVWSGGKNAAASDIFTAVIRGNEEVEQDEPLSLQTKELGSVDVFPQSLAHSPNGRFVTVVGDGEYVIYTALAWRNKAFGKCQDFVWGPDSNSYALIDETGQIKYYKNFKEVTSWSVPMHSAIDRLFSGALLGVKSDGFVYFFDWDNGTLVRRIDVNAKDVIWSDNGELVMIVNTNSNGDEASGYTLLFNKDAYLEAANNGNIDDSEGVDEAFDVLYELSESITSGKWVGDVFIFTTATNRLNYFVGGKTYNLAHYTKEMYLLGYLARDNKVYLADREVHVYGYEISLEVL
untagged Glo3 BoCCS fragment (residues 230–300), sequence (P38682 230-300): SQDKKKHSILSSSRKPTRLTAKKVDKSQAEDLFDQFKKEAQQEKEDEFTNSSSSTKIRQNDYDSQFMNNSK
untagged Glo3 residues 230–290, sequence (P38682 230-290): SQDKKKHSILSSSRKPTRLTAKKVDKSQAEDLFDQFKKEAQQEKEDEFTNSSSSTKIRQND
C-terminal β′-COP propeller (residues 300–604), untagged (yeast (S. cerevisiae)), sequence (P41811 300-604): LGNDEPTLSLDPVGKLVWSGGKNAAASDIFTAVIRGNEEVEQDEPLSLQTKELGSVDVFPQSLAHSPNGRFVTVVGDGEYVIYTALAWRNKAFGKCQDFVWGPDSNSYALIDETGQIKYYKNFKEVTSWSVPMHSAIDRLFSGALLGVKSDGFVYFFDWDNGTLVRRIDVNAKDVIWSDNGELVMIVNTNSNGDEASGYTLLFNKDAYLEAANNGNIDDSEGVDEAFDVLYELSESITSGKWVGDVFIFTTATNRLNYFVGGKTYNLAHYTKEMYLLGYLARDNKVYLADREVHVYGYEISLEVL

- Kd [1]: > 300 µM
Substance: Glo3 fragment lacking N-terminal residues 230–240, untagged (domain or fragment)

- stoichiometry N [1]: 1
Substance: full BoCCS Glo3 fragment (residues 208–383), untagged (from UniProt P38682 208-383) (domain or fragment)

- Kd [2]: < 300 µM
Substance: untagged Glo3 BoCCS fragment (residues 230–300) (from UniProt P38682 230-300) (domain or fragment)

- fold weaker binding than wild-type β′-COP [3]: 16 fold
Substance: untagged Glo3 residues 230–290 (from UniProt P38682 230-290) (domain or fragment)
